For the assay, the target named is human C-KIT-Fc protein (human) (UniProt P10721). Put plainly: direct ELISA, IgG at 1 µg/ml.

Substitutions are numbered along the chain they refer to. Bounds are passed on as bounds.

Here are results for two molecules from patent US20230212285A1.

B1: E-C2 (antibody, human IgG1, V domains shown)
VH: QVQLVQSGAEVKKPGASVKVSCKASGYTFTDYYMNWVRQAPGQGLEWMGRIYPGSGNTYYAQKFQGRVTMTRDTSTSTVYMELSSLRSEDTAVYYCARGVYYLDYWGQGTLVTVSS
VL: DIQMTQSPSSLSASVGDRVTITCRASQGIRTNVAWLQQKPGKAPKSLIYSASYRQSGVPSRFSGSGSGTDFTLTISSLQPEDFATYYCQQYNSYPRTFGGGTKVEIK
B1: the OD450 nm was > 1.8 OD450 nm.

B2: MH1 IgG1 (antibody, V domains shown)
VH: B1 VH with L103Y
VL: B1 VL with V33L, L36F, S50A, Y53S, R54L
On to B2, for which the OD450 nm is > 1.8 OD450 nm.
